Data from patent publication US20200347130A1 (JIANGSU HENGRUI MEDICINE, published 2020).

What was measured:
[1] = target: T1, Full-length human CD96 on CHO-S cells (human, UniProt P40200 22-585); test: cell ELISA on fixed CHO-S cells overexpressing human CD96, HRP anti-human secondary antibody, OD450
T1 construct: also called CD96-CHOs; hCD96-CHOs
T1 sequence: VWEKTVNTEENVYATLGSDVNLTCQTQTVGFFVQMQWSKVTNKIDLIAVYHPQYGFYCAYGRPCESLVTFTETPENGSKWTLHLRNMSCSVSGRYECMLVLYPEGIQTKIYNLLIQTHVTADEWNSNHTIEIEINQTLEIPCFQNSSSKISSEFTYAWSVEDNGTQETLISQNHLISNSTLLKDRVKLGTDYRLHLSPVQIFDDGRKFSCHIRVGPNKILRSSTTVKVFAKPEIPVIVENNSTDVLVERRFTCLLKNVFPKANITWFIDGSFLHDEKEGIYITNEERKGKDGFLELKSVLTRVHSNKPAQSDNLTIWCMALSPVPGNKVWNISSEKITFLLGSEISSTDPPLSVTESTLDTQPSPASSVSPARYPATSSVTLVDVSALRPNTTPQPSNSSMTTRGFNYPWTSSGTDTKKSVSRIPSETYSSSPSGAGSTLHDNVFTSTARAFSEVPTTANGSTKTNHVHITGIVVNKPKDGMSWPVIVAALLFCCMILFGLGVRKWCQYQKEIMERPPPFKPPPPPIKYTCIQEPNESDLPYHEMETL
Protocol: The binding capacity of the anti-CD96 antibody was tested by binding experiments of the antibody to human CD96 protein overexpressing CHO-S cells. The full-length CD96 plasmid was transfected into CHO-S cells by electrotransfection, and cells were then screened for two weeks under pressure for the detection of the expression of CD96. After the over-expressing cells were fixed at the bottom of the 96-well plate, the density of the signal after adding the antibody was used to judge the binding activity of the antibody to CD96 overexpressing CHO-S cells. The specific experimental method is as follows:
The cells were seeded at a density of 9×10⁴/100 μL/well in a 96-well plate and cultured overnight. After aspirating the supernatant, the plate was washed once with PBS, subsequently, 100 μl/well immunostaining fixation solution (Biyuntian, P0098) was added and fixed for one hour at room temperature, and the plate was washed three times with PBS. Once the liquid was discarded, 250 μl/well of 5% skim milk (BD, 232100) blocking solution diluted with PBS was added, and the plate was blocked in an incubator at 37° C. for 2.5 hours. […] The absorption value was read at 450 nm with a NOVOStar microplate reader, and the EC50 value of the CD96 antibodies to CD96 overexpressing CHO-S cells was calculated (see FIG. 1 and Table 15).

[2] = target: T2, CD96 extracellular region with His tag (CD96-His) (human, UniProt P40200 22-519); test: blocking cell ELISA: antibody pre-mixed with Bio-CD96-His, added to fixed CD155-CHO cells, HRP-streptavidin, OD450; blocked ligand: human CD155 on CHO cells
T2 construct: also called CD96-ECD-His; Bio-CD96-His (biotin-labelled form)
T2 sequence: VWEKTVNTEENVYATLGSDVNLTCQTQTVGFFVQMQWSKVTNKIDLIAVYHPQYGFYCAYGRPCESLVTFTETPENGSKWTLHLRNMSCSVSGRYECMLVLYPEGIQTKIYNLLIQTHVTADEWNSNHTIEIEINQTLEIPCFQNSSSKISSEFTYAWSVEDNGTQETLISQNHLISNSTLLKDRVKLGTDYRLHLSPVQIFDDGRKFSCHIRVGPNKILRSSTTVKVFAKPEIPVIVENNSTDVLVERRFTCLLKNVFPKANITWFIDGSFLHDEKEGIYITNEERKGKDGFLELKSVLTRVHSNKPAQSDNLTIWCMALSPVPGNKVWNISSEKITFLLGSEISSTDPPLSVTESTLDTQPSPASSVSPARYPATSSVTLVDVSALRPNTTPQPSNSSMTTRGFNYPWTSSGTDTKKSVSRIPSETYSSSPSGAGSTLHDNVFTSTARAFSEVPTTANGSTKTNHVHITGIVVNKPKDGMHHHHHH
Protocol: CD155-CHO cells (constructed by Shanghai Hengrui) were seeded in 96-well culture plates at a density of 9×10⁴/100 μL/well and cultured overnight. After aspirating the supernatant, the plate was washed once with PBS, 100 μl/well of immunostaining fixation solution (Biyuntian, Cat No. P0098) was added and fixed for one hour at room temperature, and the plate was washed three times with PBS. After discarding the liquid, 250 μl/well of 5% skim milk (BD, Cat No. 232100) blocking solution diluted with PBS was added, and the plate was blocked in an incubator at 37° C. for 2.5 hours. After blocking, the blocking solution was discarded, subsequently, the plate was washed 4 times with PBST buffer (pH 7.4 PBS containing 0.05% tween-20). […] The absorption value was read at 450 nm with a NOVOStar microplate reader, and the EC50 value of the effect of CD96 antibody on blocking the binding between the antigens and CD155-CHO cells was calculated (see FIG. 2 and Table 16).

EC50 (read off the curve) [1]: ~0.05 nM | IC50 (read off the curve) [2]: ~0.6 nM
B1: h1719-010 (antibody, V domains shown)
VH: EVTLKESGPVLVKPTETLTLTCTVSGFSLSSYGVSWVRQPPGKGLEWLGVIWGDGNTNYHSVLISRLTISKDTSKSQVVLTLTNMDPVDTATYYCAKQNYYGSRYGYPIDYWGQGTTVTVSS
VL: DIQMTQSPSSVSASVGDRVTITCKATQDVGTAVAWYQQKPGKAPKLLIYWASTRHTGVPSRFSGSGSGTDFTLTISSLQPEDFATYYCQQYGSSVLTFGGGTKVEIK
notes: Only variable regions are tied to this name
